From paper PMC6666309 (Biochemistry, 2019) come the findings set out here.

The chains are these.
B1: pro-cathepsin D (enzyme)
chain: not shown
modifications: fluorescently labelled in the MST assay (dye and site not stated)
B2: full-length progranulin (natural protein, human, UniProt P28799 18-593, looked up)
chain: TRCPDGQFCPVACCLDPGGASYSCCRPLLDKWPTTLSRHLGGPCQVDAHCSAGHSCIFTVSGTSSCCPFPEAVACGDGHHCCPRGFHCSADGRSCFQRSGNNSVGAIQCPDSQFECPDFSTCCVMVDGSWGCCPMPQASCCEDRVHCCPHGAFCDLVHTRCITPTGTHPLAKKLPAQRTNRAVALSSSVMCPDARSRCPDGSTCCELPSGKYGCCPMPNATCCSDHLHCCPQDTVCDLIQSKCLSKENATTDLLTKLPAHTVGDVKCDMEVSCPDGYTCCRLQSGAWGCCPFTQAVCCEDHIHCCPAGFTCDTQKGTCEQGPHQVPWMEKAPAHLSLPDPQALKRDVPCDNVSSCPSSDTCCQLTSGEWGCCPIPEAVCCSDHQHCCPQGYTCVAEGQCQRGSEIVAGLEKMPARRASLSHPRDIGCDQHTSCPVGQTCCPSLGGSWACCQLPHAVCCEDRQHCCPAGYTCNVKARSCEKEVVSAQPATFLARSPHVGVKDVECGEGHFCHDNQTCCRDNRQGWACCPYRQGVCCADRRHCCPAGFRCAARGTKCLRREAPRWDAPLRDPALRQLL

The data set “full-length progranulin” deals with B2. The experiment in a line: MST.
The data set “pro-cathepsin D” has as its target B1. Briefly: cell-based or functional assay.

pro-cathepsin D, sequence (P07339 21-412): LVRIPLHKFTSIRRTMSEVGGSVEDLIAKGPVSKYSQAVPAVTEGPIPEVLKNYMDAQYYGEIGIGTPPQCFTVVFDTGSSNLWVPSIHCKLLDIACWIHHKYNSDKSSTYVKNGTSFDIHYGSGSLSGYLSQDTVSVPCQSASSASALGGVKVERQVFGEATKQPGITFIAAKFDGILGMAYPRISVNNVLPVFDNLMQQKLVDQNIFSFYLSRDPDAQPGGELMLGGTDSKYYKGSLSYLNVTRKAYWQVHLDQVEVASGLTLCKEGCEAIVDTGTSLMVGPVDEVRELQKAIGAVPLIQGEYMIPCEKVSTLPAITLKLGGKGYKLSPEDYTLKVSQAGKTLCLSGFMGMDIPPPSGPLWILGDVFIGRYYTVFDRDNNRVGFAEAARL

For B1, the Kd in the data set with full-length progranulin came to 950 nM.

On to B2, for which, in the data set with pro-cathepsin D, the “DSF - ΔTm of proCTSD (1 μM proCTSD with 2 μM PGRN, pH 7.4)” value was -0.41 °C.
